Reference: article doi:10.1101/2024.08.08.606885

How the values were obtained:
[1] = biological target: SARS-CoV-2 BA.2.86 S (Acro Biosystems, SPN-C524y) (SARS-CoV-2); test: cryo-EM structure
[2] = biological target: SARS-CoV-2 JN.1 RBD (SARS-CoV-2) (UniProt P0DTC2); test: BLI; […]; 10x kinetics buffer, […]; global fit, 1:1 binding model; […]

Substance	stoichiometry N [1]	Kd [2] [nM]	koff [2] [s⁻¹]	kon [2] [M⁻¹ s⁻¹]
SARS-CoV-2 BA.2.86 S (Acro Biosystems, SPN-C524y) (domain or fragment)	3	–	–	–
TRI2-2 homotrimeric miniprotein inhibitor (designed binder)	–	6.19	0.00175	282000
